Data as given in article PMC8464079.

Tests used:
Test in all cases: fluorescence polarization
MUT-#12 (K513E) = target: T1, MUT-#12 (K513E) (Caenorhabditis elegans, UniProt Q09487 172-535, K513E)
T1 sequence: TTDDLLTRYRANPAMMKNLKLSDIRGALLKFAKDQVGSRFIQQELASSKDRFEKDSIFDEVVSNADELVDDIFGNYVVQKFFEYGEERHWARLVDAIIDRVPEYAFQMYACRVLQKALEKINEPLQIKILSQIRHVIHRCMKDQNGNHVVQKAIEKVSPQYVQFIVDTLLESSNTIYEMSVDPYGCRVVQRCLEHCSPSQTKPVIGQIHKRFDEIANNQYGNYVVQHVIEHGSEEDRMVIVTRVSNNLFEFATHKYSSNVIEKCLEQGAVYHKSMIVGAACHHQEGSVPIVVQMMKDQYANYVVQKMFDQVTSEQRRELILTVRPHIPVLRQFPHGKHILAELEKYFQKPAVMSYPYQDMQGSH

MUT-4G = target: T2, MUT-4G (Caenorhabditis elegans, UniProt Q09487 172-535, N318S;H319N;Q322E)
T2 sequence: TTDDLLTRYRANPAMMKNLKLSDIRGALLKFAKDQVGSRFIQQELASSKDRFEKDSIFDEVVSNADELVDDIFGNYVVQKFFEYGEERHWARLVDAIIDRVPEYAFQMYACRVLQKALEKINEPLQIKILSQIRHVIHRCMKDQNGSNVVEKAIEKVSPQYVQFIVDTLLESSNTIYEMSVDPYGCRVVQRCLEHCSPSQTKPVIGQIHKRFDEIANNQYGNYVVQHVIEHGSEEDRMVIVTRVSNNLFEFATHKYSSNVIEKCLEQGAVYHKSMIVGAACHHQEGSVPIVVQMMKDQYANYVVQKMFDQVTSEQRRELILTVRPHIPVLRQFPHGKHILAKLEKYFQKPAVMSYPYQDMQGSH

MUT-8G = target: T3, MUT-8G (Caenorhabditis elegans, UniProt Q09487 172-535, N472S;Y473N;Q476E)
T3 sequence: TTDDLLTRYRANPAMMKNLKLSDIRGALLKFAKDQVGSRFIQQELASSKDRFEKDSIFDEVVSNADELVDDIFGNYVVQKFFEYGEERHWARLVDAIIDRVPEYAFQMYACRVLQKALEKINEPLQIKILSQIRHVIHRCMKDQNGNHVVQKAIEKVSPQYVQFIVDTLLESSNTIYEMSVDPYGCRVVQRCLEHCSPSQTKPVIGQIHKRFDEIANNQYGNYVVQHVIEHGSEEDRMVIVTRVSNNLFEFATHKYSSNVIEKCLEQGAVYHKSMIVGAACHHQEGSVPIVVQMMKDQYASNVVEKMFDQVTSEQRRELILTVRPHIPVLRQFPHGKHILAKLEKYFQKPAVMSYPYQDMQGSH

MUT-#14 (Q476A/K513A) = target: T4, MUT-#14 (Q476A/K513A) (Caenorhabditis elegans, UniProt Q09487 172-535, Q476A;K513A)
T4 sequence: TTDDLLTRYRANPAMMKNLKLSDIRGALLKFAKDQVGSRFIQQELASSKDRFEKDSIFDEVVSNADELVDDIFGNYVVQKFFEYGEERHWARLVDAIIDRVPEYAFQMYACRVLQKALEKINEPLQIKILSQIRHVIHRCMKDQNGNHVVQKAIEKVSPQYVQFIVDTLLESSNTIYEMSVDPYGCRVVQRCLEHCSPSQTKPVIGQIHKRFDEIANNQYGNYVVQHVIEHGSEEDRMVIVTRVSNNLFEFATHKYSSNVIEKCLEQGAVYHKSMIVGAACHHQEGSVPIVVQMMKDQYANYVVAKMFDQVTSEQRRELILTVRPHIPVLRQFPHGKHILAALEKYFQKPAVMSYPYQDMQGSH

MUT-4C = target: T5, MUT-4C (Caenorhabditis elegans, UniProt Q09487 172-535, N318C;H319Y;Q322R)
T5 sequence: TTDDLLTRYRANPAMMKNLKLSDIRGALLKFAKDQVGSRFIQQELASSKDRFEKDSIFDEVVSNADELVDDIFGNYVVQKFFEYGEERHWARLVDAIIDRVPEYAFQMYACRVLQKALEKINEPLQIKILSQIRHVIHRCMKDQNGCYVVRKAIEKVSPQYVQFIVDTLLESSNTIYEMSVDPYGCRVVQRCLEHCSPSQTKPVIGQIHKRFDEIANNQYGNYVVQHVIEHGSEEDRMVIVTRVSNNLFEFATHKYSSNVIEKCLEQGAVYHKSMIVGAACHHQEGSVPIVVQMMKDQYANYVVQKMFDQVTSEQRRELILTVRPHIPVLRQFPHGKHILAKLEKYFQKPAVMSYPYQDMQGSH

MUT-#10 (Q476E) = target: T6, MUT-#10 (Q476E) (Caenorhabditis elegans, UniProt Q09487 172-535, Q476E)
T6 sequence: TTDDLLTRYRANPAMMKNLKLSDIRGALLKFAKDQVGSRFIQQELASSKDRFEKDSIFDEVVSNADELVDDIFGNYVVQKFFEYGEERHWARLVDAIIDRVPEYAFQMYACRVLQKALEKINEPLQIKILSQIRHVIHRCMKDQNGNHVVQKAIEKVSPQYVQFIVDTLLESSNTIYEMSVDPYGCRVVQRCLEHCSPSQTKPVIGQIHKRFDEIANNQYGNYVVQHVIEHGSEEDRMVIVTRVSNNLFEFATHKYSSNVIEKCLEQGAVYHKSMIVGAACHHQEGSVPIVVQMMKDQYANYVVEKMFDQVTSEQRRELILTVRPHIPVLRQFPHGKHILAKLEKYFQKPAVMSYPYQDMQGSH

## UGUAAAUA (ssRNA) [PBE-5A FAM]
MUT-#12 (K513E)
  Kd: 209 ± 29.1 nM
MUT-4G
  Kd: 239 ± 48 nM
MUT-8G
  binding result: no binding
MUT-#14 (Q476A/K513A)
  Kd: 210 ± 27.4 nM
MUT-4C
  Kd: 16.3 ± 4.64 nM
MUT-#10 (Q476E)
  Kd: 519 ± 63.1 nM
